Molecular target: Purified 6x His-tagged PCNA, P12004
Sequence (P12004 whole entry): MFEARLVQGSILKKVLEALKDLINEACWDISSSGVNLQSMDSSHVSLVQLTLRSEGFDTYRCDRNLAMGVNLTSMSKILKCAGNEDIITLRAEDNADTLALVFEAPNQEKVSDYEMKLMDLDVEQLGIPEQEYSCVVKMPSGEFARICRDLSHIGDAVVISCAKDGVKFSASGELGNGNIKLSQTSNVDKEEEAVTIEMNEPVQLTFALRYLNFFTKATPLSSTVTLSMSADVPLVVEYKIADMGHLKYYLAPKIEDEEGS

B1: Purified recombinant 6x His-tagged Arm1 (protein)
chain: MAVVPASLSGQDVGSFAYLTIKDRIPQILTKVIDTLHRHKSEFFEKHGEEGVEAEKKAISLLSKLRNELQTDKPFIPLVEKFVDTDIWNQYLEYQQSLLNESDGKSRWFYSPWLLVECYMYRRIHEAIIQSPPIDYFDVFKESKEQNFYGSQESIIALCTHLQQLIRTIEDLDENQLKDEFFKLLQISLWGNKCDLSLSGGESSSQNTNVLNSLEDLKPFILLNDMEHLWSLLSNCKKTREKASATRVYIVLDNSGFELVTDLILADFLLSSELATEVHFYGKTIPWFVSDTTIHDFNWLIEQVKHSNHKWMSKCGADWEEYIKMGKWVYHNHIFWTLPHEYCAMPQVAPDLYAELQKAHLILFKGDLNYRKLTGDRKWEFSVPFHQALNGFHPAPLCTIRTLKAEIQVGLQPGQGEQLLASEPSWWTTGKYGIFQYDGPL
PCNA-dependent carboxyl methyltransferase activity (vapour diffusion assay): Arm possesses a PCNA-dependent carboxyl methyltransferase activity

Source: patent US20150065444
